Earlier results on 1 substance are cited in PMC7448383.

The data set deals with GST (Schistosoma japonicum) [GST: P08515].

Sequence of GST (P08515 2-218): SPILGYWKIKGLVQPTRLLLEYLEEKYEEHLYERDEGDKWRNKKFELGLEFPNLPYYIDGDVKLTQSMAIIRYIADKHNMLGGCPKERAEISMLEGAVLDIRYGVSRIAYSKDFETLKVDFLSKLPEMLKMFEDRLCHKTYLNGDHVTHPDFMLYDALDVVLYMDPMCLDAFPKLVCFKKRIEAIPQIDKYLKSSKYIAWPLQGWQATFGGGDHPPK

By Kd is commonly meant a measure of binding affinity in units of concentration. For the substance GST (from UniProt P08515), the dissociation constant Kd was 0.34 µM.
